Experimental data: PMC8225996 (Frontiers in Cardiovascular Medicine, 2021)

Biological target: T1, Angiotensin converting enzyme 2 (mouse (endogenous in primary brain …, UniProt Q8R0I0 18-805))
T1 construct: Angiotensin converting enzyme 2 (ACE2), type I membrane glycoprotein; endogenous in mouse brain microvascular endothelial cells; also called ACE2; ACE2 receptor; source: endogenous, mouse primary brain microvascular endothelial cells (C57BL/6 control; db/db diabetic), in lysate
Assay: co-IP; ACE2 antibody (2 ug) with 150 ug lysate of control endothelial cells treated with Spike; Catch and Release spin columns, 18 h at 4 C; blots probed for Rab5a
Conditions: partners not purified

T1 sequence (Q8R0I0 18-805): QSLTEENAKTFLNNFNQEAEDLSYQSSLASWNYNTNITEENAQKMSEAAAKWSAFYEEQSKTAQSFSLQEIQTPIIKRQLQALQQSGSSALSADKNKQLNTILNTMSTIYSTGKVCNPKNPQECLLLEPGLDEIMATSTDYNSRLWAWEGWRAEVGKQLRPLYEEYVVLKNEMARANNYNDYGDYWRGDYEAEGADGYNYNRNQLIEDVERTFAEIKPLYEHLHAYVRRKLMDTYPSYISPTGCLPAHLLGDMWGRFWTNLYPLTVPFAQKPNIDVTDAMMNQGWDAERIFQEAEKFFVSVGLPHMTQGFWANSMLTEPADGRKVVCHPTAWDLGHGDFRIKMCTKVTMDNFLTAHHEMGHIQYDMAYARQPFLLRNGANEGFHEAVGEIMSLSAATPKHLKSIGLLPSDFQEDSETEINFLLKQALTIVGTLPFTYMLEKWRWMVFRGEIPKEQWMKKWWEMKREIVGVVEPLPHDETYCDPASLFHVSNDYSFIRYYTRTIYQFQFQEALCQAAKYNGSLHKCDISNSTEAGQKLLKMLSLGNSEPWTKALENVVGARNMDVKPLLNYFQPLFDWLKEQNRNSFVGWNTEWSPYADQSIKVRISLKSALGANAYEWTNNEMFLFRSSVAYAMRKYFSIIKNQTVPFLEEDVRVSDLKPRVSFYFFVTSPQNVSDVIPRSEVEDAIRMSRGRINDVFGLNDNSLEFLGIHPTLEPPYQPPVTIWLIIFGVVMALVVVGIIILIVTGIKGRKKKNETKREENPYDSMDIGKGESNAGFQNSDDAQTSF

B1: Rab5a (natural protein, UniProt Q9CQD1 1-215, looked up)
chain: MANRGATRPNGPNTGNKICQFKLVLLGESAVGKSSLVLRFVKGQFHEFQESTIGAAFLTQTVCLDDTTVKFEIWDTAGQERYHSLAPMYYRGAQAAIVVYDITNEESFARAKNWVKELQRQASPNIVIALSGNKADLANKRAVDFQEAQSYADDNSLLFMETSAKTSMNVNEIFMAIAKKLPKNEPQNPGANSARGRGVDLTEPAQPARSQCCSN
notes: Rab5a, Rab GTPase of the endolysosomal trafficking pathway; endogenous in mouse brain microvascular endothelial cells; source: endogenous, mouse primary brain microvascular endothelial cells (C57BL/6 control; db/db diabetic), in lysate
  fold change of association with ACE2, Spike-treated against untreated cells: 2 fold
